Values quoted from earlier work in patent US9545449B2, “Site-specific labeling and targeted delivery of proteins for the treatment of cancer” (Advanced Proteome Therapeutics Inc., priority 2012, dated 2017).

Settings: binding to phosphatidylserine; from Thiagarajan and Tait, J. Biol. Chem. 265:17420-17423 (1990); read-out: Kd (affinity for PS)

Kd: 1.7 nM
B1: Annexin V: human annexin V (SEQ ID NO:1) (Accession P08758); phosphatidylserine-binding protein (protein, listed as Homo sapiens)
chain: MAQVLRGTVTDFPGFDERADAETLRKAMKGLGTDEESILTLLTSRSNAQRQEISAAFKTLFGRDLLDDLKSELTGKFEKLIVALMKPSRLYDAYELKHALKGAGTNEKVLTEIIASRTPEELRAIKQVYEEEYGSSLEDDVVGDTSGYYQRMLVVLLQANRDPDAGIDEAQVEQDAQALFQAGELKWGTDEEKFITIFGTRSVSHLRKVFDKYMTISGFQIEETIDRETSGNLEQLLLAVVKSIRSIPAYLAETLYYAMKGAGTDDHTLIRVMVSRSEIDLFNIRKEFRKNFATSLYSMIKGDTSGDYKKALLLLCGEDD
